Reference: patent publication US20220144956A1 (published 2022)

molecular target: T1, human TGFßRII (antigen of the Octet experiments) (human, UniProt P37173 23-166)
T1 sequence (P37173 23-166): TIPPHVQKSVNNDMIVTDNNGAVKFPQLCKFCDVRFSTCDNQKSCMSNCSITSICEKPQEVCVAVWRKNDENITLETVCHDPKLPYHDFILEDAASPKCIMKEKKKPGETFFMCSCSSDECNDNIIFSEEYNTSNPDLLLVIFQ

Row | Binder | Kd [nM]
1 | XENP35104 H1.29 L1 (antibody, V domains shown) VH: QLQVQESGPGLVKPSETLSLTCTVSGGSISNSYFTWGWIRQPPGKGLEWIGSFYYGEKTYYNPSLKSRATISIDTSKSQFSLKLSSVTAADTAVYYCPRGPTMIRGVIDSWGQGTLVTVSS VL: EIVLTQSPATLSLSPGERATLSCRASQSVRSYLAWYQQKPGQAPRLLIYDASNRATGIPARFSGSGSGTDFTLTISSLEPEDFAVYYCQQRSNWPPTFGQGTKVEIK | 2.43
2 | XENP36181 H1.198 L1 (antibody, V domains shown) VH: QLQVQESGPGLVKPSETLSLTCTVSGGSISQSYFSWGWIRQPPGKGLEWIGSFYYGGKTYYNPSLKSRATISIDTSKNQFSLKLSSVTAADTAVYYCARGPTTIRGVIDSWGQGTLVTVSS VL: EIVLTQSPATLSLSPGERATLSCRASQSVRSYLAWYQQKPGQAPRLLIYDASNRATGIPARFSGSGSGTDFTLTISSLEPEDFAVYYCQQRSNWPPTFGQGTKVEIK | 8.4
3 | XENP36178 H1.195 L1 (antibody, V domains shown) VH: QLQVQESGPGLVKPSETLSLTCTVSGGSISTSYFSWGWIRQPPGKGLEWIGSFYYGGKTYYNPSLKSRATISIDTSKNQFSLKLSSVTAADTAVYYCARGPTVIRGVIDSWGQGTLVTVSS VL: EIVLTQSPATLSLSPGERATLSCRASQSVRSYLAWYQQKPGQAPRLLIYDASNRATGIPARFSGSGSGTDFTLTISSLEPEDFAVYYCQQRSNWPPTFGQGTKVEIK | 8.42
4 | XENP36174 H1.191 L1 (antibody, V domains shown) VH: QLQVQESGPGLVKPSETLSLTCTVSGGSISSSYFSWGWIRQPPGKGLEWIGSFYYGGKTYYNPSLKSRATISIDTSKNQFSLKLSSVTAADTAVYYCARGPTVIRGVIDSWGQGTLVTVSS VL: EIVLTQSPATLSLSPGERATLSCRASQSVRSYLAWYQQKPGQAPRLLIYDASNRATGIPARFSGSGSGTDFTLTISSLEPEDFAVYYCQQRSNWPPTFGQGTKVEIK | 8.43
5 | XENP35105 H1.30 L1 (antibody, V domains shown) VH: QLQVQESGPGLVKPSETLSLTCTVSGGSISNSYFYWGWIRQPPGKGLEWIGSFYYGEKTYYNPSLKSRATISIDTSKSQFSLKLSSVTAADTAVYYCPRGPTMIRGVIDSWGQGTLVTVSS VL: EIVLTQSPATLSLSPGERATLSCRASQSVRSYLAWYQQKPGQAPRLLIYDASNRATGIPARFSGSGSGTDFTLTISSLEPEDFAVYYCQQRSNWPPTFGQGTKVEIK | 15.4
6 | XENP36180 H1.197 L1 (antibody, V domains shown) VH: QLQVQESGPGLVKPSETLSLTCTVSGGSISQSYFSWGWIRQPPGKGLEWIGSFYYGGKTYYNPSLKSRATISIDTSKNQFSLKLSSVTAADTAVYYCARGPTLIRGVIDSWGQGTLVTVSS VL: EIVLTQSPATLSLSPGERATLSCRASQSVRSYLAWYQQKPGQAPRLLIYDASNRATGIPARFSGSGSGTDFTLTISSLEPEDFAVYYCQQRSNWPPTFGQGTKVEIK | 6.07
7 | XENP36172 H1.189 L1 (antibody, V domains shown) VH: QLQVQESGPGLVKPSETLSLTCTVSGGSISSSYFSWGWIRQPPGKGLEWIGSFYYGGKTYYNPSLKSRATISIDTSKNQFSLKLSSVTAADTAVYYCARGPTLIRGVIDSWGQGTLVTVSS VL: EIVLTQSPATLSLSPGERATLSCRASQSVRSYLAWYQQKPGQAPRLLIYDASNRATGIPARFSGSGSGTDFTLTISSLEPEDFAVYYCQQRSNWPPTFGQGTKVEIK | 6.99
8 | XENP36186 H1.203 L1 (antibody, V domains shown) VH: QLQVQESGPGLVKPSETLSLTCTVSGGSISNAYFSWGWIRQPPGKGLEWIGSFYYGGKTYYNPSLKSRATISIDTSKNQFSLKLSSVTAADTAVYYCARGPTVIRGVIDSWGQGTLVTVSS VL: EIVLTQSPATLSLSPGERATLSCRASQSVRSYLAWYQQKPGQAPRLLIYDASNRATGIPARFSGSGSGTDFTLTISSLEPEDFAVYYCQQRSNWPPTFGQGTKVEIK | 6.44
9 | XENP34288 H1.1 L1 (antibody, V domains shown) VH: QLQVQESGPGLVKPSETLSLTCTVSGGSISNSYFSWGWIRQPPGKGLEWIGSFYYGEKTYYNPSLKSRATISIDTSKSQFSLKLSSVTAADTAVYYCPRGPTVIRGVIDSWGQGTLVTVSS VL: EIVLTQSPATLSLSPGERATLSCRASQSVRSYLAWYQQKPGQAPRLLIYDASNRATGIPARFSGSGSGTDFTLTISSLEPEDFAVYYCQQRSNWPPTFGQGTKVEIK | 4.26
10 | XENP36176 H1.193 L1 (antibody, V domains shown) VH: QLQVQESGPGLVKPSETLSLTCTVSGGSISTSYFSWGWIRQPPGKGLEWIGSFYYGGKTYYNPSLKSRATISIDTSKNQFSLKLSSVTAADTAVYYCARGPTLIRGVIDSWGQGTLVTVSS VL: EIVLTQSPATLSLSPGERATLSCRASQSVRSYLAWYQQKPGQAPRLLIYDASNRATGIPARFSGSGSGTDFTLTISSLEPEDFAVYYCQQRSNWPPTFGQGTKVEIK | 7.15
11 | XENP36173 H1.190 L1 (antibody, V domains shown) VH: QLQVQESGPGLVKPSETLSLTCTVSGGSISSSYFSWGWIRQPPGKGLEWIGSFYYGGKTYYNPSLKSRATISIDTSKNQFSLKLSSVTAADTAVYYCARGPTTIRGVIDSWGQGTLVTVSS VL: EIVLTQSPATLSLSPGERATLSCRASQSVRSYLAWYQQKPGQAPRLLIYDASNRATGIPARFSGSGSGTDFTLTISSLEPEDFAVYYCQQRSNWPPTFGQGTKVEIK | 9.24
12 | XENP36168 H1.185 L1 (antibody, V domains shown) VH: QLQVQESGPGLVKPSETLSLTCTVSGGSISESYFSWGWIRQPPGKGLEWIGSFYYGGKTYYNPSLKSRATISIDTSKNQFSLKLSSVTAADTAVYYCARGPTLIRGVIDSWGQGTLVTVSS VL: EIVLTQSPATLSLSPGERATLSCRASQSVRSYLAWYQQKPGQAPRLLIYDASNRATGIPARFSGSGSGTDFTLTISSLEPEDFAVYYCQQRSNWPPTFGQGTKVEIK | 7.26
13 | XENP36182 H1.199 L1 (antibody, V domains shown) VH: QLQVQESGPGLVKPSETLSLTCTVSGGSISQSYFSWGWIRQPPGKGLEWIGSFYYGGKTYYNPSLKSRATISIDTSKNQFSLKLSSVTAADTAVYYCARGPTVIRGVIDSWGQGTLVTVSS VL: EIVLTQSPATLSLSPGERATLSCRASQSVRSYLAWYQQKPGQAPRLLIYDASNRATGIPARFSGSGSGTDFTLTISSLEPEDFAVYYCQQRSNWPPTFGQGTKVEIK | 7.43
14 | XENP36166 H1.183 L1 (antibody, V domains shown) VH: QLQVQESGPGLVKPSETLSLTCTVSGGSISNSYFSWGWIRQPPGKGLEWIGSFYYGGKTYYNPSLKSRATISIDTSKNQFSLKLSSVTAADTAVYYCARGPTMIRGVFDSWGQGTLVTVSS VL: EIVLTQSPATLSLSPGERATLSCRASQSVRSYLAWYQQKPGQAPRLLIYDASNRATGIPARFSGSGSGTDFTLTISSLEPEDFAVYYCQQRSNWPPTFGQGTKVEIK | 6.15
15 | XENP36179 H1.196 L1 (antibody, V domains shown) VH: QLQVQESGPGLVKPSETLSLTCTVSGGSISQSYFSWGWIRQPPGKGLEWIGSFYYGGKTYYNPSLKSRATISIDTSKNQFSLKLSSVTAADTAVYYCARGPTMIRGVIDSWGQGTLVTVSS VL: EIVLTQSPATLSLSPGERATLSCRASQSVRSYLAWYQQKPGQAPRLLIYDASNRATGIPARFSGSGSGTDFTLTISSLEPEDFAVYYCQQRSNWPPTFGQGTKVEIK | 3.69
16 | XENP36171 H1.188 L1 (antibody, V domains shown) VH: QLQVQESGPGLVKPSETLSLTCTVSGGSISSSYFSWGWIRQPPGKGLEWIGSFYYGGKTYYNPSLKSRATISIDTSKNQFSLKLSSVTAADTAVYYCARGPTMIRGVIDSWGQGTLVTVSS VL: EIVLTQSPATLSLSPGERATLSCRASQSVRSYLAWYQQKPGQAPRLLIYDASNRATGIPARFSGSGSGTDFTLTISSLEPEDFAVYYCQQRSNWPPTFGQGTKVEIK | 4.19

molecular target: T1, human TGFßRII (antigen of the Octet …); remark: another data set of the same source

Row | Binder | Kd [nM]
17 | XENP37821 TBRII-A_H1.274_L1 (antibody, V domains shown) VH: QLQVQESGPGLVKPSETLSLTCTVSGGSISNAYFSWGWIRQPPGKGLEWIGSFNYGGKTYYNPSLKSRATISIDTSKNQFSLKLSSVTAADTAVYYCARGPTLIRGVIDSWGQGTLVTVSS VL: EIVLTQSPATLSLSPGERATLSCRASQSVRSYLAWYQQKPGQAPRLLIYDASNRATGIPARFSGSGSGTDFTLTISSLEPEDFAVYYCQQRSNWPPTFGQGTKVEIK | 16.8
18 | XENP37815 TBRII-A_H1.271_L1.53 (antibody, V domains shown) VH: QLQVQESGPGLVKPSETLSLTCTVSGGSISSSYFSWHWIRQPPGKGLEWIGSFYYGGKTYYNPSLKSRATISIDTSKNQFSLKLSSVTAADTAVYYCARGPTLIRGVIDSWGQGTLVTVSS VL: EIVLTQSPATLSLSPGERATLSCRASQSVRSYLAWYQQKPGQAPRLLIYDASNRATGIPARFSGSGSGTDFTLTISSLEPEDFAVYYCQQRSNYPPTFGQGTKVEIK | 411
19 | XENP37822 TBRII-A_H1.201_L1.53 (antibody, V domains shown) VH: QLQVQESGPGLVKPSETLSLTCTVSGGSISNAYFSWGWIRQPPGKGLEWIGSFYYGGKTYYNPSLKSRATISIDTSKNQFSLKLSSVTAADTAVYYCARGPTLIRGVIDSWGQGTLVTVSS VL: EIVLTQSPATLSLSPGERATLSCRASQSVRSYLAWYQQKPGQAPRLLIYDASNRATGIPARFSGSGSGTDFTLTISSLEPEDFAVYYCQQRSNYPPTFGQGTKVEIK | 46.6
20 | XENP37819 TBRII-A_H1.273_L1.53 (antibody, V domains shown) VH: QLQVQESGPGLVKPSETLSLTCTVSGGSISSSYFSWHWIRQPPGKGLEWIGSFYYGGKTYYNPSLKSRATISIDTSKNQFSLKLSSVTAADTAVYYCARGPTTIRGVIDSWGQGTLVTVSS VL: EIVLTQSPATLSLSPGERATLSCRASQSVRSYLAWYQQKPGQAPRLLIYDASNRATGIPARFSGSGSGTDFTLTISSLEPEDFAVYYCQQRSNYPPTFGQGTKVEIK | 7.7
21 | TBRII-A_H1.1_L1 (antibody, V domains shown) VH: QLQVQESGPGLVKPSETLSLTCTVSGGSISNSYFSWGWIRQPPGKGLEWIGSFYYGEKTYYNPSLKSRATISIDTSKSQFSLKLSSVTAADTAVYYCPRGPTVIRGVIDSWGQGTLVTVSS VL: EIVLTQSPATLSLSPGERATLSCRASQSVRSYLAWYQQKPGQAPRLLIYDASNRATGIPARFSGSGSGTDFTLTISSLEPEDFAVYYCQQRSNWPPTFGQGTKVEIK | 2.1
22 | TBRII-A_H1.51_L1 (antibody, V domains shown) VH: QLQVQESGPGLVKPSETLSLTCTVSGGSISNSYFSWGWIRQPPGKGLEWIGSFNYGEKTYYNPSLKSRATISIDTSKSQFSLKLSSVTAADTAVYYCPRGPTMIRGVIDSWGQGTLVTVSS VL: EIVLTQSPATLSLSPGERATLSCRASQSVRSYLAWYQQKPGQAPRLLIYDASNRATGIPARFSGSGSGTDFTLTISSLEPEDFAVYYCQQRSNWPPTFGQGTKVEIK | 53
